Results taken from article PMC3477848 (Biochemistry, 2012).
Read-outs that look alike come from different tables or passages of the source.

Assays:
Assay in all cases: fluorescence anisotropy
[1] = molecular target: T1, Dpo1 exo- (SsoDpo1, B-family DNA polymerase) (Sulfolobus solfataricus, UniProt P26811 1-882, D231A;D318A)
T1 sequence: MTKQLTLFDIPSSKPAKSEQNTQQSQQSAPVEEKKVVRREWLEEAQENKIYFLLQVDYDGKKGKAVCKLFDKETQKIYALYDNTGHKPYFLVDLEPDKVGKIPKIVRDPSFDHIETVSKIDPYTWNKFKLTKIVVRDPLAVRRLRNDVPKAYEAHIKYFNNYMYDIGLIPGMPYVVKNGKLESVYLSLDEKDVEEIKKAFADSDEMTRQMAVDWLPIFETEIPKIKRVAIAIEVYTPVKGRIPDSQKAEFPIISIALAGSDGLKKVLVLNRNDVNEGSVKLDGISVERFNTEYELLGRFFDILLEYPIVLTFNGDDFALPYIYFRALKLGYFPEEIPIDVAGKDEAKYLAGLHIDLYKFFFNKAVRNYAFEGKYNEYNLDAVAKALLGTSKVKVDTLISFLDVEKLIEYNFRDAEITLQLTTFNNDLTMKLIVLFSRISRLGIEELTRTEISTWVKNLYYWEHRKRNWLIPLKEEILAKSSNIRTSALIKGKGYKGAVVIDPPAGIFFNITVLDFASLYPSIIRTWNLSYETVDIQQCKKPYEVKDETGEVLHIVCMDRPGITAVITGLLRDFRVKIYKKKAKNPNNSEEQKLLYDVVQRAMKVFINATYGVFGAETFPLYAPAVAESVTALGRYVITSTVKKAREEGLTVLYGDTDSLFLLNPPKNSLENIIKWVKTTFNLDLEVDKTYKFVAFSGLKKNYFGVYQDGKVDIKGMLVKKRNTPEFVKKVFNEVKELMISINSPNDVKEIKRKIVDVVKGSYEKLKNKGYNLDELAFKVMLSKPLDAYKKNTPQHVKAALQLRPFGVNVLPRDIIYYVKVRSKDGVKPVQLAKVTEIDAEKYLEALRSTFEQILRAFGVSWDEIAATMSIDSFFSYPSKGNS

[2] = molecular target: T1, Dpo1 exo- (SsoDpo1, B-family DNA …); remark: listed apart in the source
[3] = molecular target: T2, Dpo4 (SsoDpo4, Y-family DNA polymerase) (Sulfolobus solfataricus, UniProt Q97W02 1-352)
T2 sequence: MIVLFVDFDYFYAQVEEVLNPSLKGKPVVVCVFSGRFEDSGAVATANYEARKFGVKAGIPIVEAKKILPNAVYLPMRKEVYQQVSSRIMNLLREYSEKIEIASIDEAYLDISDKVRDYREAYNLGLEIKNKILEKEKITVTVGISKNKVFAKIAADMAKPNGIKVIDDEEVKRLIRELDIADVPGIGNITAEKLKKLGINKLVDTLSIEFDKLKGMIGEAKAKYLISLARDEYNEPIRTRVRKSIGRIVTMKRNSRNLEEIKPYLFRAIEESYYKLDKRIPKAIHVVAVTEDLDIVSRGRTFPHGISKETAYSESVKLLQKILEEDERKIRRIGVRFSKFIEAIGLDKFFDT

[4] = molecular target: T1, Dpo1 exo- (SsoDpo1, B-family DNA …); remark: listed apart in the source
[5] = molecular target: T2, Dpo4 (SsoDpo4, Y-family DNA polymerase); remark: listed apart in the source
[6] = molecular target: T1, Dpo1 exo- (SsoDpo1, B-family DNA …); remark: listed apart in the source
[7] = molecular target: T2, Dpo4 (SsoDpo4, Y-family DNA polymerase); remark: listed apart in the source

Binder: TTTTTTTTTTCCCGGGCCGGCGTTTCGCCGGCCCGGG (structured_DNA) [37-nt hairpin primer-template, 5'-Cy3]
- Kd [1]: 198 ± 26 nM
- Kd [2]: 144 ± 3 nM
- Kd [3]: 133 ± 26 nM
- Kd [4]: 109 ± 16 nM
- Kd [5]: 155 ± 65 nM
- Kd [6]: 170 ± 23 nM
- Kd [7]: 214 ± 3 nM
